Test results published in patent US20210292393A1 (published 2021).
Positions count from the first letter of the chain named.

B1: antibody 273 (antibody, V domains shown)
VH: QVQLVQSGAEVKKPGASVKVSCKVSGYTLTELSMHWVRQAPGKGLEWMGGFDPEDGETIYAQKFQGRVTMTEDTSTDTAYMELSSLRSEDTAVYYCATAPGYYDSSAPQPINWFDPWGQGTLVTVSS
VL: QSALTQPASVSGSPGQSITISCTGTSSDVGSYNLVSWYQQHPGKAPKLMIYEVSKRPSGVSNRFSGSKSGNTASLTISGLQAEDEADYYCCSYAGSSTLVFGGGTKLTVL
B2: antibody 496 (antibody, V domains shown)
VH: QVQLVQSGAEVKKPGASVKVSCKASGYTFTDYYIHWVRQAPGQGLEWMGWINPNSGGTNYAQKFQGRLTMTRDTSISTAYMELSRLRSDDTAVYYCARVYSMFREFIINPYYYYYGLDVWGQGTTVTVSS
VL: B1 VL with G15R, V53G, T76A, D87N
B3: antibody 507 (antibody, V domains shown)
VH: QVQLQESGPGLVKPSGTLSLTCAVSGGSISSSNWWSWVRQPPGKGLEWIGEIYHSGNTNYNPSLKSRVTISVDKSKNQFSLKLSSVTAADTAVYYCARREWLRLFDYWGQGTLVTVSS
VL: B1 VL with L99Y, G103T, L107V
B4: antibody 487 (antibody, V domains shown)
VH: QVQLQESGPGLVKPSQTLSLTCTVSGGSISSGGYYWSWIRQHPGKGLEWIGYIYYSGSTYYNPSLKSRVTISVDTSKNQFSLKLSSVTAADTAVYYCARGPLDFWSGYFRLRYFDCWGQGTLVTVSS
VL: QSALTQPASVSGSPGQSITISCTGTSSDVGGYNYVSWYQQHPGKAPKLMIYDVTNRPSGVSNRFSGSKSGNTASLTISGLQAEDEADYYCSSYTSSSTCVFGTGTKVTVL
B5: antibody 265 (antibody, V domains shown)
VH: EVQLVQSGAEVKKPGATVKVSCKFSGDTFSHYYIHWVQQAPGKGLEWMGLVDPQDGESEYAQKFQGKVTITADTSIDTSYLEVTSLRFDDTAFYFCATRGMSGAFDRWGQGTLVTVSS
VL: DIVMTQSPDSLAVSLGERATINCKSSQSILSTSNNKNYLAWYQQKPGQPPKLLIYWASTRESGVPDRFSGGGSGTDFTLTISSLQAEDVAVYYCQQYYRTAYTTPIYTFGQGTKLEIK
B6: antibody 317 (antibody, V domains shown)
VH: QVQLVQSGAEVKKPGASVKVSCKVSGYTLTELSMHWVRQAPGKGLEWMGGFDPEDGETIYAQKFQGRVTMTEDTSTDTAYMELSSLRSEDTAVYYCASSPAAAGTSQYYYYYGMDVWGQGTTVTVSS
VL: not shown
B7: antibody 301 (antibody, V domains shown)
VH: QVQLVQSGAEVKKPGASVKVSCKVSGYTLTELSMHWVRQAPGKGLEWMGGFDPEDGETIYAQKFQGRVTMTEDTSTDTAYMELSSLRSEDTAVYYCATAFCGGDCYPPDALDIWGQGTMVTVSS
VL: DIQMTQSPSSVSASVGDRVTITCRASQGISSWLAWYQQKPGKAPKLLIYAASSLQSGVPSRFSGSGSGTDFTLTISSLQPEDFATYYCQQANSFPLTFGGGTKVEIK
B8: antibody 514 (antibody, V domains shown)
VH: EVQLVQSGAEVKKPGATVKISCKVSGYTFTDYYMHWVQQAPGKGLEWMGLVDPEDGETIYAEKFQGRVTITADTSTDTAYMELSSLRSEDTAVYYCATDCKYDILTGHYSAGYYYYGMDVWGQGTTVTVSS
VL: B7 VL with V11L, S31N, W32Y, Y36F, L46S, R61K, A91Y, F94Y, L96F
B9: antibody 497 (antibody, V domains shown)
VH: QVQLQESGPGLVKPSQTLSLTCTVSGGSINSFGYYWSWIRQHPGKGLEWIGYIYYSGSTDYNPSLNSRVTISLDTSKNQFLLKLTSVTAADTAVYYCAKLTDYYDSSGYSFDYWGQGTLVTVSS
VL: B7 VL with G28D, S31R, S65R, D70E, F71L, Y87F, N92Y, L96F
B10: antibody 290 (antibody, V domains shown)
VH: QVHLVQSGAEVKKPGASVKVSCAASGYTFNNYGVSWVRQAPGQGLEWMGWISASNGNTKYAQNLQGRVTMTTDTSTSTAYMELRSLRSDDTAVYYCARDLVGPTAPNYYYGMDVWGQGTAVTVSS
VL: QSVLTQPPSVSGAPGQRVTISCTGSSSSIGAGYDVHWYQQLPGTAPKLLIYANSNRPSGVPDRLSGSKSGTSASLAITGLQAEDEADYYCQSYDSSLSGYVFGTGTKVTVL
B11: antibody 315 (antibody, V domains shown)
VH: QVQLVQSGSELKKPGASVKLSCQASGYSFTNHAMNWVRQAPGQGLEWMGWINTNTGNPTYAQGFTGRFVFSLDTSVSTTYLHISSLKAEDTAVYYCARASARPGVATNLDFWGQGTLVVVSS
VL: DIQMTQSPSSLSASVGDRVTITCRASQNIDNYLNWYQQKPGKAPKLLIYAASRLHSGVPSRFSGSGSGTDFTLIISSLQPEDLATYYCQQSYSNPLTFGPGTKVDIR
B12: antibody 299 (antibody, V domains shown)
VH: not shown
VL: EIVLTQSPATLSLSPGERATLSCRASQSVSSYLAWYQQKPGQAPRLLIYDASNRATGIPARFSGSGSGTDFTLTISSLEPEDFAVYYCQQRSNWPWTFGQGTKVEIK
B13: antibody 270 (antibody, V domains shown)
VH: QVQLVQSGAEVKRPGTSVKVSCKTSGYTFTDHFIHWVRQAPGRRLEWMGWINPNSGGTNYAQNFQGRVTMTRDTSITTAYMDLTRLTSDDTAIYYCAREAAYGSGNLNWFDPWGQGTRVTVSS
VL: NFMLTQPHSVSESPGKTVTISCTGSSGSIAANYVHWYQQRPGSAPRTVIYEDNQRPSGVPDRFSGSIDSSSNSASLTISGLKTEDEADYYCQSYDGDSWVFGGGTKLTVL
B14: antibody 294 (antibody, V domains shown)
VH: EVQLVESGGGLVQPGGSLRLSCAASGFTVSSNYMNWVRQAPGKGLEWVSVIYSGGSTYYADSVKGRFTISRDNSKNTLYLQMNSLRAEDTAVYYCARDLGPSGMDVWGQGTTVTVSS
VL: DIQMTQSPSSVSASVGDRVTITCRASQGISSWLAWYQQKPGKAPKLLIYAASSLQSGVPSRFSGSGSGTDFTLTISSLQPEDFATYYCQQANSFPLFGGGTKVEIK
B15: antibody 295 (antibody, V domains shown)
VH: QVQLQESGPGLVKPSQTLSLTCTVSGGSISSSDYYWSWIRQPPGKGLEWIGYIYYSGSTYYNPSLKSRVTISVDTSKNQFSLKLSSVTAADTAVYYCARVVGYCSSTSCYVDYWGQGTLVTVSS
VL: EIVLTQSPATLSLSPGERVTLSCRASQSVSSYLAWYQQKPGQAPRLLIYDASNRATGIPARFSGSGSGTDFTLTISSLEPEDFAVYYCQQRSNWPPGLTFGGGTKVEIK
B16: antibody 267 (antibody, V domains shown)
VH: EVHLVQSGAEMKKPGATVKISCKVSGNTFIDHYIQWVQQAPGKGFEWMGLVDPEDGETIYAEKFQGRVTITADTSRDTAYMELSSLKSEDTAVYYCGTHGDYLDYWGQGTLVTVSS
VL: FYELTQPSSVSVSPGQTALITCSGDVVAKKYARWFQQKAGQAPVLVIYKDTERPSGIPERISGSSSGTTVTLTISGAQVEDEADYYCYSATDNNLVFGGGTKVTVL
B17: antibody 498 (antibody, V domains shown)
VH: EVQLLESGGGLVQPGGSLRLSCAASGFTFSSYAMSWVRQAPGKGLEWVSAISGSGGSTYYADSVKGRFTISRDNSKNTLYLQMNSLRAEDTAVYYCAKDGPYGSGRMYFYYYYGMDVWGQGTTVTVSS
VL: QSALTQPASVSGSPGQSITISCTGTSSDVGSYNLVSWYQQHPGKAPKLMIYEGSKRPSGVSNRFSGSKSGNTASLTISGLQAEDEADYYCCSYAGSSTSFVVFGGGTKLTVL
B18: antibody 505 (antibody, V domains shown)
VH: EVQLVESGGGLVKPGGSLRLSCAASGFTFSSYSMNWVRQAPGKGLEWVSSISSSSSYIYYADSVKGRITISRDNAKNSLYLQMNSLRAEDTAVYYCAREYPNFRAEWLLSPYGMDVWGQGTTVTVSS
VL: B17 VL with G53V, F100V, V101K, G105T, L109V
B19: antibody 516 (antibody, V domains shown)
VH: QVELQQWGAGLLKPSETLSLTCAVYGGSFSGYYWSWIRQPPGKGLEWIGEINHSGSTNYNPSLKSRVTISIDTSKNQFSLKLSSVTAADTAVYYCARGTTVTTFFAPHWYFDLWGRGTLVTVSS
VL: QSALTQPASVSGSPGQSITISCTGTSSDVGGYNYVSWYQQHPGKAPKLMIYDVSNRPSGVSNRFSGSKSGNTASLTISGLQAEDEADYYCSSYTSSSTPYVFGTGTKVTVL
B20: antibody 510 (antibody, V domains shown)
VH: QVQLQESGPGLVKPSQTLSLTCTVSGGSISSGSYYWSWIRQPAGKGLEWIGRIYTSGSTNYNPSLKSRVTISVDTSKNQFSLKLSSVTAADTAVYYCAREGQWLYRFDYWGQGTLVTVSS
VL: QSALTQPASVSGSPGQSITISCTGTSSDVGNYDLVSWYQQHPGKAPKLVIYGVTKRPSGVSNRFSGSKSGNTASLTISGLQAEDEADYYCCSYATGDTSVFGTGTKVTVL
B21: antibody 288 (antibody, V domains shown)
VH: EVQLVESGGGLVQPGGSLRLSCAASGFTFSSYDMHWVRQATGKGLEWVSAIGTAGDTYYPGSVKGRFTISRENAKNSLYLQMNSLRAGDTAVYYCARGANRDYDILTGYYSYYYYGMDVWGQGTTVTVSS
VL: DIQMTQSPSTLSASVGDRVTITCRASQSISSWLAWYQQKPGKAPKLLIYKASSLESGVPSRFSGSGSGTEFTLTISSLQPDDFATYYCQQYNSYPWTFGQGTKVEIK
B22: antibody 306 (antibody, V domains shown)
VH: QVQLVESGGGVVQPGRSLRLSCAASGFTFSSYGMHWVRQAPGKGLEWVAVIWYDGSNKYYADSVKGRFTISRDNSKNTLYLQMNSLRAEDTAVYYCAKDGGYCGGDCYSDGVDYWGQGTLVTVSS
VL: not shown

What was measured:
[1] = molecular target: full-length trimeric SARS-CoV spike protein (SARS-CoV, UniProt P59594 14-1190)
[2] = molecular target: SARS-CoV spike protein (full-length trimeric, on beads) (SARS-CoV, UniProt P59594 14-1190)

Binder	median fluorescence intensity, fold over isotype control [1]	bead binding signal, fold over isotype control [2]
B1	1.23 fold over isotype	–
B2	–	1.15 fold over isotype
B3	–	1.07 fold over isotype
B4	–	7.25 fold over isotype
B5	1.09 fold over isotype	–
B6	1.14 fold over isotype	–
B7	1.45 fold over isotype	–
B8	–	1.15 fold over isotype
B9	–	1.23 fold over isotype
B10	1.25 fold over isotype	–
B11	1.07 fold over isotype	–
B12	1.13 fold over isotype	–
B13	1.34 fold over isotype	–
B14	1.07 fold over isotype	–
B15	1.24 fold over isotype	–
B16	16.9 fold over isotype	–
B17	–	1.31 fold over isotype
B18	–	1.04 fold over isotype
B19	–	1.03 fold over isotype
B20	–	1.03 fold over isotype
B21	1 fold over isotype	–
B22	1.39 fold over isotype	–
